# Measurements published in patent publication US20150307561.
# Experiments:
# Assay in all cases: cell_activity
# [1] = test system: TALEN L*, non-canonical RVDs (synthetic (Xanthomonas TALE scaffold))
# [2] = test system: TALEN L (L538), canonical RVDs (synthetic (Xanthomonas TALE scaffold)); details: cold shock
# [3] = test system: TALEN L+17 (synthetic (Xanthomonas TALE scaffold)); details: K562, partner R2+17, cold shock
# [4] = test system: TALEN L*+17 (synthetic (Xanthomonas TALE scaffold)); details: for off-target activity reduction (fold reduction vs L+17): L*+17 homodimer at +17_OT1
# [5] = test system: TALEN R (R557), canonical RVDs (synthetic (Xanthomonas TALE scaffold)); details: cold shock
# [6] = test system: TALEN R*, non-canonical RVDs (synthetic (Xanthomonas TALE scaffold)); details: cold shock
# [7] = test system: TALEN R 102148 (synthetic (Xanthomonas TALE scaffold)); details: K562, partner TALEN L
# [8] = test system: TALEN R 102158 (synthetic (Xanthomonas TALE scaffold)); details: K562, partner TALEN L
# [9] = test system: TALEN R 102128 (synthetic (Xanthomonas TALE scaffold)); details: K562, partner TALEN L
# [10] = test system: TALEN R 102109 G34R in repeat 8 (synthetic (Xanthomonas TALE scaffold)); details: K562, partner TALEN L
# [11] = test system: TALEN R 102150 (synthetic (Xanthomonas TALE scaffold)); details: K562, partner TALEN L
# [12] = test system: TALEN R 102123 (synthetic (Xanthomonas TALE scaffold)); details: K562, partner TALEN L
# [13] = test system: TALEN R 102146 (synthetic (Xanthomonas TALE scaffold)); details: K562, partner TALEN L
# [14] = test system: TALEN R 102159 (synthetic (Xanthomonas TALE scaffold)); details: K562, partner TALEN L
# [15] = test system: TALEN R 102162 (synthetic (Xanthomonas TALE scaffold)); details: K562, partner TALEN L
# [16] = test system: TALEN R 102156 (synthetic (Xanthomonas TALE scaffold)); details: K562, partner TALEN L
# [17] = test system: TALEN R 102177 (synthetic (Xanthomonas TALE scaffold)); details: K562, partner TALEN L
# [18] = test system: TALEN R 102129 (synthetic (Xanthomonas TALE scaffold)); details: K562, partner TALEN L
# [19] = test system: TALEN R 102112 (synthetic (Xanthomonas TALE scaffold)); details: K562, partner TALEN L
# [20] = test system: TALEN R 102161 (synthetic (Xanthomonas TALE scaffold)); details: K562, partner TALEN L
# [21] = test system: TALEN R 102124 (synthetic (Xanthomonas TALE scaffold)); details: K562, partner TALEN L
# [22] = test system: TALEN R 102105 (synthetic (Xanthomonas TALE scaffold)); details: K562, partner TALEN L
# [23] = test system: TALEN R 102115 (synthetic (Xanthomonas TALE scaffold)); details: K562, partner TALEN L
# [24] = test system: TALEN R 102102 (synthetic (Xanthomonas TALE scaffold)); details: K562, partner TALEN L
# [25] = test system: TALEN R 102151 (synthetic (Xanthomonas TALE scaffold)); details: K562, partner TALEN L
# [26] = test system: TALEN L 102078 (synthetic (Xanthomonas TALE scaffold)); details: K562, partner TALEN R
# [27] = test system: TALEN L 102203 (synthetic (Xanthomonas TALE scaffold)); details: K562, partner TALEN R
# [28] = test system: TALEN L 102075 (synthetic (Xanthomonas TALE scaffold)); details: K562, partner TALEN R
# [29] = test system: TALEN L 102214 (synthetic (Xanthomonas TALE scaffold)); details: K562, partner TALEN R
# [30] = test system: TALEN L 102210 (synthetic (Xanthomonas TALE scaffold)); details: K562, partner TALEN R
# [31] = test system: TALEN L 102049 (synthetic (Xanthomonas TALE scaffold)); details: K562, partner TALEN R
# [32] = test system: TALEN L 102002 (synthetic (Xanthomonas TALE scaffold)); details: K562, partner TALEN R
# [33] = test system: TALEN L 102076 (synthetic (Xanthomonas TALE scaffold)); details: K562, partner TALEN R
# [34] = test system: TALEN L 102035 (synthetic (Xanthomonas TALE scaffold)); details: K562, partner TALEN R
# [35] = test system: TALEN L 102216 (synthetic (Xanthomonas TALE scaffold)); details: K562, partner TALEN R
# [36] = test system: TALEN L 102056 (synthetic (Xanthomonas TALE scaffold)); details: K562, partner TALEN R
# [37] = test system: TALEN L 102217 (synthetic (Xanthomonas TALE scaffold)); details: K562, partner TALEN R
# [38] = test system: TALEN L 102052 (synthetic (Xanthomonas TALE scaffold)); details: K562, partner TALEN R
# [39] = test system: TALEN L 102208 (synthetic (Xanthomonas TALE scaffold)); details: K562, partner TALEN R
# [40] = test system: TALEN L 102215 (synthetic (Xanthomonas TALE scaffold)); details: K562, partner TALEN R
# [41] = test system: TALEN L 102211 (synthetic (Xanthomonas TALE scaffold)); details: K562, partner TALEN R
# [42] = test system: TALEN L 102041 (synthetic (Xanthomonas TALE scaffold)); details: K562, partner TALEN R
# [43] = test system: TALEN L 102219 (synthetic (Xanthomonas TALE scaffold)); details: K562, partner TALEN R
# [44] = test system: TALEN L 102010 (synthetic (Xanthomonas TALE scaffold)); details: K562, partner TALEN R
# [45] = test system: TALEN L 102006 (synthetic (Xanthomonas TALE scaffold)); details: K562, partner TALEN R
# [46] = test system: TALEN L 102204 (synthetic (Xanthomonas TALE scaffold)); details: K562, partner TALEN R
# [47] = test system: TALEN L 102038 (synthetic (Xanthomonas TALE scaffold)); details: K562, partner TALEN R
# [48] = test system: TALEN L 102043 (synthetic (Xanthomonas TALE scaffold)); details: K562, partner TALEN R
# [49] = test system: TALEN L 102205 (synthetic (Xanthomonas TALE scaffold)); details: K562, partner TALEN R
# [50] = test system: TALEN L 102085 (synthetic (Xanthomonas TALE scaffold)); details: K562, partner TALEN R
# [51] = test system: TALEN L 102077 (synthetic (Xanthomonas TALE scaffold)); details: K562, partner TALEN R
# [52] = test system: TALEN L 102072 (synthetic (Xanthomonas TALE scaffold)); details: K562, partner TALEN R
# [53] = test system: TALEN L 102213 (synthetic (Xanthomonas TALE scaffold)); details: K562, partner TALEN R
# [54] = test system: TALEN L 102046 (synthetic (Xanthomonas TALE scaffold)); details: K562, partner TALEN R; 30.1 in Table 4
# [55] = test system: TALEN L 102083 (synthetic (Xanthomonas TALE scaffold)); details: K562, partner TALEN R
# [56] = test system: TALEN L 102206 (synthetic (Xanthomonas TALE scaffold)); details: K562, partner TALEN R
# [57] = test system: TALEN L 102202 (synthetic (Xanthomonas TALE scaffold)); details: K562, partner TALEN R
# [58] = test system: TALEN L 102224 (synthetic (Xanthomonas TALE scaffold)); details: K562, partner TALEN R
# [59] = test system: TALEN L 102066 (synthetic (Xanthomonas TALE scaffold)); details: K562, partner TALEN R
# [60] = test system: TALEN L 102209 (synthetic (Xanthomonas TALE scaffold)); details: K562, partner TALEN R
# [61] = OT2, L*/L* homodimer, about 180-fold below L
sequence,measurement,setting,value
CCCGATGAAGCCCCAGGTGTTTTAAAT (double strand) [OT2 right half],activity,[1]; [61],0.017 % indels
same,activity,"[2]; OT2, L/L homodimer",3.18 % indels
"CTTCATTACACCTGCAGCTCTCA (double strand) [CCR5 +17 target, left half]",activity,[3],> 85 % indels
same,activity,"[4]; K562, partner R2+17, cold shock",> 85 % indels
CTTGATTCCACCTGTAGCTCCGAGCAAA (double strand) [OT2 left half],activity,[1]; [61],0.017 % indels
same,activity,"[2]; OT2, L/L homodimer",3.18 % indels
GTTACCAGATATCCTTTCTGGAAGAAA (double strand) [OT1 right half],activity,"[5]; OT1, L/R",3.17 % indels
same,activity,"[6]; OT1, L*/R*, 0.663 for L/R*",0.32 % indels
TCTTCCAGAATTGATACT (double strand) [TALEN R binding site (CCR5)],activity,[7],33.7 % indels
same,activity,[8],23.4 % indels
same,activity,[9],7.6 % indels
same,activity,[10],29.7 % indels
same,activity,[11],31.2 % indels
same,activity,[12],32.8 % indels
same,activity,[13],31.4 % indels
same,activity,[14],24.9 % indels
same,activity,[15],23.1 % indels
same,activity,"[5]; K562, L/R",50.6 % indels
same,activity,[16],25.4 % indels
same,activity,[17],22.9 % indels
same,activity,[18],4.7 % indels
same,activity,[19],6.1 % indels
same,activity,"[6]; K562, L*/R*, 55.53 with L",65.2 % indels
same,activity,[20],9.3 % indels
same,activity,[21],29.1 % indels
same,activity,[22],24.9 % indels
same,activity,[23],27.7 % indels
same,activity,[24],27.8 % indels
same,activity,[25],23.6 % indels
TTCATTACACCTGCAGCT (double strand) [TALEN L binding site (CCR5)],activity,[26],25.1 % indels
same,activity,[27],16.6 % indels
same,activity,[28],10.7 % indels
same,activity,[29],31.2 % indels
same,activity,"[1]; K562, L*/R*, cold shock, 58.66 with R",65.2 % indels
same,activity,[30],33.6 % indels
same,activity,[31],25.9 % indels
same,activity,[32],20.3 % indels
same,activity,[33],21.6 % indels
same,activity,[34],16.8 % indels
same,activity,[35],35.4 % indels
same,activity,[36],30.9 % indels
same,activity,[37],34.5 % indels
same,activity,[38],30.1 % indels
same,activity,[39],27.9 % indels
same,activity,[40],29 % indels
same,activity,[41],23.2 % indels
same,activity,[42],4.2 % indels
same,activity,[43],37.8 % indels
same,activity,[44],17.3 % indels
same,activity,[45],1.3 % indels
same,activity,[46],36.6 % indels
same,activity,"[2]; K562, L/R",50.6 % indels
same,activity,[47],17.2 % indels
same,activity,[48],22.4 % indels
same,activity,[49],40.2 % indels
same,activity,[50],26.1 % indels
same,activity,[51],23.8 % indels
same,activity,[52],24.5 % indels
same,activity,[53],34.1 % indels
same,activity,[54],33.6 % indels
same,activity,[55],27 % indels
same,activity,[56],23.5 % indels
same,activity,[57],32.4 % indels
same,activity,[58],38.7 % indels
same,activity,[59],22.9 % indels
same,activity,[60],28.4 % indels
TTTACCCTGCAGGTGTGATGAAT (double strand) [+17_OT1 right half],off-target activity reduction (fold reduction vs L+17),[4],> 100
TTTAGATACACCTACCTATAAAT (double strand) [+17_OT1 left half],off-target activity reduction (fold reduction vs L+17),[4],> 100
TTTTATTACACTTCCAGATCTTTTATT (double strand) [OT1 left half],activity,"[1]; OT1, L*/R*, cold shock, 1.967 for L*/R",0.32 % indels
same,activity,"[2]; OT1, L/R",3.17 % indels
